Results from patent US20200199213A1 (Eli Lilly, published 2020).

Molecular target: T1, mouse LPL (mouse, UniProt P11152 28-474)
T1 sequence (looked up): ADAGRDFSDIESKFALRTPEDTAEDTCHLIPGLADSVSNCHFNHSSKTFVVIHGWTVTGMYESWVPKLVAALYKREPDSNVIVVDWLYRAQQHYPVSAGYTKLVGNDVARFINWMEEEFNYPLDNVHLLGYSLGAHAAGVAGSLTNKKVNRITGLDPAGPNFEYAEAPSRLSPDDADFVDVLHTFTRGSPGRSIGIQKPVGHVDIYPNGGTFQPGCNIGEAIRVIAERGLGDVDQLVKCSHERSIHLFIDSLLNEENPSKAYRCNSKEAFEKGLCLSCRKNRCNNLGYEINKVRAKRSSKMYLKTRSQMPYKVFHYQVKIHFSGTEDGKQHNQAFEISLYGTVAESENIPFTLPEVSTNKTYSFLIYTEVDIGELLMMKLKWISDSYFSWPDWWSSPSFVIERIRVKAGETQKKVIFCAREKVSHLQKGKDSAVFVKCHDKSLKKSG
Test: cell-based or functional assay

IC80 concentration (inhibition of LPL activity): 0.13 nM
B1: mouse ANGPTL3/8 complex (other)
chain 1: SRVDPDLSSFDSAPSEPKSRFAMLDDVKILANGLLQLGHGLKDFVHKTKGQINDIFQKLNIFDQSFYDLSLRTNEIKEEEKELRRTTSTLQVKNEEVKNMSVELNSKLESLLEEKTALQHKVRALEEQLTNLILSPAGAQEHPEVTSLKSFVEQQDNSIRELLQSVEEQYKQLSQQHMQIKEIEKQLRKTGIQEPSENSLSSKSRAPRTTPPLQLNETENTEQDDLPADCSAVYNRGEHTSGVYTIKPRNSQGFNVYCDTQSGSPWTLIQHRKDGSQDFNETWENYEKGFGRLDGEFWLGLEKIYAIVQQSNYILRLELQDWKDSKHYVEYSFHLGSHETNYTLHVAEIAGNIPGALPEHTDLMFSTWNHRAKGQLYCPESYSGGWWWNDICGENNLNGKYNKPRTKSRPERRRGIYWRPQSRKLYAIKSSKMMLQPTT
chain 2: VRPAPVAPLGGPEPAQYEELTLLFHGALQLGQALNGVYRATEARLTEAGHSLGLYDRALEFLGTEVRQGQDATQELRTSLSEIQVEEDALHLRAEATARSLGEVARAQQALRDTVRRLQVQLRGAWLGQAHQEFETLKARADKQSHLLWALTGHVQRQQREMAEQQQWLRQIQQRLHTAALPA
